Measured values reported in patent US20200010567A1 (NEURIMMUNE, published 2020).

Experiments:
GA3: H-(GA)3HHHHHH-NH2 = target: T1, GA3: H-(GA)3HHHHHH-NH2; experiment: indirect ELISA, His-tagged peptide coated at 50 ug/ml, antibody titrated [also D00025 FIG. 7H]
T1 peptide: H-GAGAGAHHHHHH-NH2
Protocol: (§1) 96-well microplates (Corning Incorporated, Corning, USA) were coated with dipeptide repeat protein peptides at a concentration of 50 μg/ml in coating buffer (15 mM Na₂CO₃, 35 mM NaHCO₃, pH 9.42). Non-specific binding sites were blocked for 1 h at room temperature with PBS/0.1% Tween®-20 containing 2% BSA (Sigma-Aldrich, Buchs, Switzerland). Primary antibodies were diluted to the indicated concentrations and incubated 1 h at room temperature, followed by incubation with a donkey anti-human IgG Fcγ-specific antibody conjugated with HRP (Jackson ImmunoResearch Laboratories, Inc., West Grove, USA). Binding was determined by measurement of HRP activity in a standard colorimetric assay. EC₅₀ values were estimated by non-linear regression using GraphPad Prism software (San Diego, USA).
(§2) High affinity binding was detected for poly-GA DPRs harboring 10 or 20 (GA)-repeats, reflected in an EC₅₀ in the subnanomolar or low nanomolar range (FIGS. 7A, 7C-7I).

GA2: H-(GA)2HHHHHH-NH2 = target: T2, GA2: H-(GA)2HHHHHH-NH2; experiment: as above
T2 peptide: H-GAGAHHHHHH-NH2
Protocol: as §1, §2

GA4: H-(GA)4HHHHHH-NH2 [1] = target: T3, GA4: H-(GA)4HHHHHH-NH2; experiment: as above
T3 peptide: H-GAGAGAGAHHHHHH-NH2
Protocol: as §1, §2

GA4: H-(GA)4HHHHHH-NH2 [2] = target: T3, GA4: H-(GA)4HHHHHH-NH2; experiment: indirect ELISA, His-tagged peptide coated at 50 ug/ml, antibody titrated [also D00024 FIG. 7F]
From the text: In brief, dipeptide repeat proteins were synthesized and purified by Schafer-N (Copenhagen, Denmark): GA₂₀: H-(GA)₂₀HHHHHH-NH₂; GA₁₀: H-(GA)₁₀HHHHHH-NH₂; GA₆: H-(GA)₆HHHHHH-NH₂; GA₅: H-(GA)₅HHHHHH-NH₂; GA₄: H-(GA)₄HHHHHH-NH₂; GA₃: H-(GA)₃HHHHHH-NH₂; GA₂: H-(GA)₂HHHHHH-NH₂; GP₂₀: H-(GP)₂₀HHHHHH-NH₂; GP₁₀: H-(GP)₁₀HHHHHH-NH₂; GP₆: H-(GP)₆HHHHHH-NH₂; GP₅: H-(GP)₅HHHHHH-NH₂; GP₄: H-(GP)₄HHHHHH-NH₂; GP₃: H-(GP)₃HHHHHH-NH₂; GP₂: H-(GP)₂HHHHHH-NH₂. GR₂₀: H-(GR)₂₀HHHHHH-NH₂; GR₁₀: H-(GR)₁₀HHHHHH-NH₂; GR₆: H-(GR)₆HHHHHH-NH₂; GR₅: H-(GR)₅HHHHHH-NH₂; GR₄: H-(GR)₄HHHHHH-NH₂; GR₃: H-(GR)₃HHHHHH-NH₂; GR₂: H-(GR)₂HHHHHH-NH₂; PA₂₀: H-(PA)₂₀HHHHHH-NH₂; PA₁₀: H-(PA)₁₀HHHHHH-NH₂; PA₆: H-(PA)₆HHHHHH-NH₂; PA₅: H-(PA)₅HHHHHH-NH₂; PA₄: H-(PA)₄HHHHHH-NH₂; PA₃: H-(PA)₃HHHHHH-NH₂; PA₂: H-(PA)₂HHHHHH-NH₂; PR₂₀: H-(PR)₂₀HHHHHH-NH₂; PR₁₀: H-(PR)₁₀HHHHHH-NH₂; PR₆: H-(PR)₆HHHHHH-NH₂; PR₅: H-(PR)₅HHHHHH-NH₂; PR₄: H-(PR)₄HHHHHH-NH₂; PR₃: H-(PR)₃HHHHHH-NH₂; PR₂: H-(PR)₂HHHHHH-NH₂. 96-well microplates (Corning Incorporated, Corning, USA) were coated with dipeptide repeat protein peptides at a concentration of 50 μg/ml in coating buffer (15 mM Na₂CO₃, 35 mM NaHCO₃, pH 9.42). Non-specific binding sites were blocked for 1 h at room temperature with PBS/0.1% Tween®-20 containing 2% BSA (Sigma-Aldrich, Buchs, Switzerland). Primary antibodies were diluted to the indicated concentrations and incubated 1 h at room temperature, followed by incubation with a donkey anti-human IgG Fcγ-specific antibody conjugated with HRP (Jackson ImmunoResearch Laboratories, Inc., West Grove, USA). Binding was determined by measurement of HRP activity in a standard colorimetric assay. EC₅₀ values were estimated by non-linear regression using GraphPad Prism software (San Diego, USA).

[3] = target: T4, BSA-coupled (PA)15 DPR protein peptide (bovine, UniProt P02769 25-607, conjugated via a bifunctional linker (SMCC) to bovine serum albumin); experiment: indirect ELISA, BSA-coupled peptide coated, antibody titrated [also D00015 FIG. 3K]
T4 construct: also called BSA-(PA)15
Protocol: as §1, with “In brief, dipeptide repeat proteins were synthesized and purified by Schafer-N(Copenhagen, Denmark): (GA)₁₅: H-CHHHHHH(GA)₁₅-OH; (GP)₁₅: H-C(GP)₁₅-OH; (GR)₁₅: H-C(GR)₁₅-OH; (PA)₁₅: H-C(PA)₁₅-OH; (PR)₁₅: H—C(PR)₁₅-OH. DPR protein peptides were then conjugated via a bifunctional linker (SMCC) to bovine serum albumin (BSA). 96-well microplates” for “96-well microplates”, “coated with BSA-coupled or -uncoupled dipeptide repeat” for “coated with dipeptide repeat”, “concentration of either 5 μg/ml or 20 μg/ml in” for “concentration of 50 μg/ml in”

PA4: H-(PA)4HHHHHH-NH2 = target: T5, PA4: H-(PA)4HHHHHH-NH2; experiment: indirect ELISA, His-tagged peptide coated at 50 ug/ml, antibody titrated [also D00028 FIG. 7P]
T5 peptide: H-PAPAPAPAHHHHHH-NH2
Protocol: as §1, §2

PA3: H-(PA)3HHHHHH-NH2 = target: T6, PA3: H-(PA)3HHHHHH-NH2; experiment: as above
T6 peptide: H-PAPAPAHHHHHH-NH2
Protocol: as §1, §2

PA2: H-(PA)2HHHHHH-NH2 = target: T7, PA2: H-(PA)2HHHHHH-NH2; experiment: as above
T7 peptide: H-PAPAHHHHHH-NH2
Protocol: as §1, §2

T4 sequence (peptide, as listed by the source limits assumed, chain 1 of 2): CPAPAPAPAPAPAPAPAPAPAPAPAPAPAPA
T4 sequence (P02769 25-607 limits assumed, chain 2 of 2): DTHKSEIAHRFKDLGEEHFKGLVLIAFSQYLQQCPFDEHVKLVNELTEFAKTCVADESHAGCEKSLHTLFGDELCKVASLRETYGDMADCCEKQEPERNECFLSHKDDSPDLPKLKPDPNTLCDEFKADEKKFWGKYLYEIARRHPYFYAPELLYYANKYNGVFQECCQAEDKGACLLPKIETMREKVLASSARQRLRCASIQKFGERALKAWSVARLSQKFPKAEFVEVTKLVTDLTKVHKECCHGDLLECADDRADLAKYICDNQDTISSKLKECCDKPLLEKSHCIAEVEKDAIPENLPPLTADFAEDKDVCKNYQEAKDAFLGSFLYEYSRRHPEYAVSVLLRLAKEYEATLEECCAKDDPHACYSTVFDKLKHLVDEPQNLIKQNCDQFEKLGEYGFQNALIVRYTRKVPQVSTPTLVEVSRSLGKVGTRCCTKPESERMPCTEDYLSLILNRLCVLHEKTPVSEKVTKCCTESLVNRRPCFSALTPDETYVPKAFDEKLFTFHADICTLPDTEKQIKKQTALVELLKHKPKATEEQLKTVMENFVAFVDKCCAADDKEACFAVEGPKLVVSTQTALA

B1: NI-308.28G1 (antibody, V domains shown)
VH: QVQLQESGPRLVKPSETLSLTCTVAGGSVNSYYWTWIQQSPGKGLEWLGRIYIAGRTNYNPSLTSRIALSVDTSRNQLSLKLTSVTAADTAIYYCARWGAESGDYYYGVDVWGPGTLVTVSS
VL: EIVMTQSPLSLPVTPGEPASISCKSSEGLLHSNGYTYLDWYLQKPGQAPQLLIFLASNRAAGVPDRFSGSGSGTDFTLKISRVEAEDVGVYYCMQAIQSPWTFGPGTKVEIK
notes: Recombinant complete human IgG1, kappa
Q: Does B1 bind (GA3: H-(GA)3HHHHHH-NH2)?
A: no binding (tested: about 4x10^5 pM (last point))

Q: Does B1 bind (GA2: H-(GA)2HHHHHH-NH2)?
A: no binding (tested: about 4x10^5 pM (last point))

Q: Does B1 bind (GA4: H-(GA)4HHHHHH-NH2 [1])?
A: no binding (tested: about 4x10^5 pM (last point))

B2: NI-308.15O7 (antibody, V domains shown)
VH: QVQLVESGGGVVQPGRSLRLSCAASGFTFSNHAMHWVRQAPGKGLEWVAVISYDGENTYYADSIEGRFTISRDNFKNTLFLQMYSLTADDTAMYFCARGGRRGHFTSYYLDYWGQGTLVTVSS
VL: CDIQMTQSPSSLSASVGDRVTITCRASQNIDKYLNWYQQIPGKAPKLLIYAASSLHSGVPSRFSGSGSGTDFSLTISSLQPEDFAIYYCQQSYSSFRTFGQGTKLEIK
Q: Does B2 bind (GA4: H-(GA)4HHHHHH-NH2 [2])?
A: no binding (tested: about 4x10^5 pM (last point))

B3: NI-308.4M1 (antibody, V domains shown)
VH: EVQLVETGGGVVQPGGSLRLSCEASGFTIGTYAMHWVRQFPGKGLDWVAVISFDGTTEYYTDAVKGRFTISRDNAKNTLYLQMNYLRGDDTAIYFCARDFTSSGETGSWTQVPDLWGQGTLVTVSS
VL: CEIVMTQSPATLSLSPGERATLSCRASQSVTKYLAWYQQKPGQAPRLLIYDVSYRAAGTPARFSGSGSGTDFTLTISSLEPEDFAVYYCHQRSSWPPVTFGGGTKVEIK
notes: as for B1
Q: What does the source list for B3?
A: EC50 [3]: 0.14 nM; binding result (PA4: H-(PA)4HHHHHH-NH2): no binding (tested: about 4x10^5 pM (last point)); binding result (PA3: H-(PA)3HHHHHH-NH2): no binding (tested: about 4x10^5 pM (last point)); binding result (PA2: H-(PA)2HHHHHH-NH2): no binding (tested: about 4x10^5 pM (last point))
